Experiments:
[1] = target: single-chain hepatocyte growth factor (scHGF)
PRO256 polypeptide = target: T1, PRO256 polypeptide
T1 chain: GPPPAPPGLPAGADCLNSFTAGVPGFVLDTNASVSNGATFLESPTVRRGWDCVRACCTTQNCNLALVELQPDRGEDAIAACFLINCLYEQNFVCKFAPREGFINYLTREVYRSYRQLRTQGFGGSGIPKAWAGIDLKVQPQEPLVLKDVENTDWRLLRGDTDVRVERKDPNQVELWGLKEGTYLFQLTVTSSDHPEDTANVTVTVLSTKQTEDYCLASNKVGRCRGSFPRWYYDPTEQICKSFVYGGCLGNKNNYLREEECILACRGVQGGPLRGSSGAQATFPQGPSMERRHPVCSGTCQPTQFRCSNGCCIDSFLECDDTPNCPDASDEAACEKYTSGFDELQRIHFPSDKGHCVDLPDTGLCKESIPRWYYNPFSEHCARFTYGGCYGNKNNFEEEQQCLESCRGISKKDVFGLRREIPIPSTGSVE

Chain of single-chain hepatocyte growth factor (scHGF) (P14210 whole entry): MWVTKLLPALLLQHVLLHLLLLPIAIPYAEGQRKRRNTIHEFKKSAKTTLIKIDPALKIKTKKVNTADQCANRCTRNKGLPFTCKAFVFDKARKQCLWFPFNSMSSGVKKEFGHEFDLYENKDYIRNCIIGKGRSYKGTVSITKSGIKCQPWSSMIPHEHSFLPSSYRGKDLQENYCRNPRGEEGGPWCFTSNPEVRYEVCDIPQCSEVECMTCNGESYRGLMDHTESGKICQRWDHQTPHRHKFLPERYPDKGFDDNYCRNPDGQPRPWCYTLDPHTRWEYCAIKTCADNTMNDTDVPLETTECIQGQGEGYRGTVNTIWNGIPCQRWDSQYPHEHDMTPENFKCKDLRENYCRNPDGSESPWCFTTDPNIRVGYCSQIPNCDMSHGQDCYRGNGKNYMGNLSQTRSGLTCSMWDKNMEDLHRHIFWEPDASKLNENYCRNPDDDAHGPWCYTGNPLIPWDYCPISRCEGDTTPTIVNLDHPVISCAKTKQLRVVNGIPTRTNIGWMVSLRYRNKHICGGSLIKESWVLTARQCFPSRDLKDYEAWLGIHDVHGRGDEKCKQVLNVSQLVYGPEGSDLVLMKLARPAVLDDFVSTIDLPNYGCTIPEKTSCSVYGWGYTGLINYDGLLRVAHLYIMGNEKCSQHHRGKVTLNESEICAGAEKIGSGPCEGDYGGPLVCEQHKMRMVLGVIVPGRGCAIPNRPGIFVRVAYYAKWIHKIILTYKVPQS

Protein | conversion of ^125I-scHGF into its two chain form, factor XIIa 40 nM, SDS-PAGE/autoradiography [1] | conversion of scHGF into its two chain form, factor XIIa 20 nM, SDS-PAGE with autoradiography or Coomassie staining [1] | factor XIIa (40 nM) conversion of ^125I-scHGF into its two chain form, SDS-PAGE/autoradiography, with or without PRO256 (PRO256 polypeptide) | human serum (10%)-mediated conversion of ^125I-scHGF into its two chain form, SDS-PAGE/autoradiography, PRO256 at 1 µM (PRO256 polypeptide)
human factor XIIa (Haematologic Technologies) (protein) IPPWEAPKEHKYKAEEHTVVLTVTGEPCHFPFQYHRQLYHKCTHKGRPGPQPWCATTPNFDQDQRWGYCLEPKKVKDHCSKHSPCQKGGTCVNMPSGPHCLCPQHLTGNHCQKEKCFEPQLLRFFHKNEIWYRTEQAAVARCQCKGPDAHCQRLASQACRTNPCLHGGRCLEVEGHRLCHCPVGYTGAFCDVDTKASCYDGRGLSYRGLARTTLSGAPCQPWASEATYRNVTAEQARNWGLGGHAFCRNPDNDIRPWCFVLNRDRLSWEYCDLAQCQTPTQAAPPTPVSPRLHVPLMPAQPAPPKPQPTTRTPPQSQTPGALPAKREQPPSLTRNGPLSCGQRLRKSLSSMTRVVGGLVALRGAHPYIAALYWGHSFCAGSLIAPCWVLTAAHCLQDRPAPEDLTVVLGQERRNHSCEPCQTLAVRSYRLHEAFSPVSYQHDLALLRLQEDADGSCALLSPYVQPVCLPSGAARPSETTLCQVAGWGHQFEGAEEYASFLQEAQVPFLSLERCSAPDVHGSSILPGMLCAGFLEGGTDACQGDSGGPLVCEDQAAERRLTLQGIISWGSGCGDRNKPGVYTDVAYYLAWIREHTVS | factor XIIa converts ^125I-scHGF into its two chain form | Both labelled and unlabelled HGF were converted identically, suggesting that the iodination of scHGF did not impair processing by its activators, such as factor XIIa. | In the presence or absence of PRO256, factor XIIa converts ^125I-scHGF into its two chain form, thereby indicating lack of inhibition by PRO256. | –
hepatocyte growth factor activator (as present in human serum) (protein) VQLSPDLLATLPEPASPGRQACGRRHKKRTFLRPRIIGGSSSLPGSHPWLAAIYIGDSFCAGSLVHTCWVVSAAHCFSHSPPRDSVSVVLGQHFFNRTTDVTQTFGIEKYIPYTLYSVFNPSDHDLVLIRLKKKGDRCATRSQFVQPICLPEPGSTFPAGHKCQIAGWGHLDENVSGYSSSLREALVPLVADHKCSSPEVYGADISPNMLCAGYFDCKSDACQGDSGGPLACEKNGVAYLYGIISWGDGCGRLHKPGVYTRVANYVDWINDRIRPPRRLVAPS | – | – | – | In the presence of the inhibitor PRO256 (at time intervals 0, 0.5 hr, 1 hr, 2 hr, and 4 hr), ^125I-sc-HGF is not converted two chain form as indicated by the top heavy band on the gel.

Reference: patent US20020123091
